Data from PMC10787763, “Two-substrate enzyme engineering using small libraries that combine the substrate preferences from two different variant lineages” (Scientific Reports, 2024).

Substrate: O=Cc1cccc(C(=O)O)c1
Assay: initial-rate kinetics by RP-HPLC, Michaelis-Menten fit
Type: biochemical, Escherichia coli
Settings: TK-3, acceptor substrate varied, 50 mM pyruvate as donor, 2.4 mM ThDP, 9 mM MgCl2, 50 mM Tris-HCl pH 7.0, 21 °C, error is SEM
Excerpt: initial-rate kinetics by RP-HPLC, Michaelis-Menten fit on E. coli transketolase (TK), 6M variant scaffold

B1: E. coli transketolase (TK), 6M variant scaffold (Escherichia coli K-12; A282P/D469T/G506A/H100L/H192P/I365L/S385F) (protein)
chain: MSSRKELANAIRALSMDAVQKAKSGHPGAPMGMADIAEVLWRDFLKHNPQNPSWADRDRFVLSNGHGSMLIYSLLHLTGYDLPMEELKNFRQLHSKTPGLPEVGYTAGVETTTGPLGQGIANAVGMAIAEKTLAAQFNRPGHDIVDHYTYAFMGDGCMMEGISHEVCSLAGTLKLGKLIAFYDDNGISIDGPVEGWFTDDTAMRFEAYGWHVIRDIDGHDAASIKRAVEEARAVTDKPSLLMCKTIIGFGSPNKAGTHDSHGAPLGDAEIALTREQLGWKYPPFEIPSEIYAQWDAKEAGQAKESAWNEKFAAYAKAYPQEAAEFTRRMKGEMPSDFDAKAKEFIAKLQANPAKIASRKASQNALEAFGPLLPEFLGGSADLAPFNLTLWSGSKAINEDAAGNYIHYGVREFGMTAIANGISLHGGFLPYTSTFLMFVEYARNAVRMAALMKQRQVMVYTHDSIGLGETGPTHQPVEQVASLRVTPNMSTWRPCDQVESAVAWKYAVERQDGPTALILSRQNLAQQERTEEQLANIARGGYVLKDCAGQPELIFIATGSEVELAVAAYEKLTAEGVKARVVSMPSTDAFDKQDAAYRESVLPKAVTARVAVEAGIADYWYKYVGLNGAIVGMTTFGESAPAELLFEEFGFTVDNVVAKAKELL
notes: full-length, C-terminal His6 tag, expressed in E. coli from lab plasmid (pQR791 / pQR729), Ni-NTA purified; holo-TK with ThDP and Mg2+; non-natural residue by amber suppression in TK-5C
B1 was tested, and the Km was 82 (11) mM, the Vmax was 3500 µM/min and the kcat was 43 s⁻¹.
